According to patent US20220372098A1 (Johns Hopkins, published 2022):
One block for each binder: values may come before it.

Tests used:
[1] = molecular target: T1, biotinylated human IL-2 with C-terminal biotin acceptor peptide (human, UniProt P60568 21-153, biotinylated with BirA ligase on the C-terminal biotin acceptor peptide); assay: bio-layer interferometry (Octet), equilibrium titration on immobilized hIL-2
T1 construct: Immobilized on streptavidin tips in BLI and used as the soluble labelled ligand in the yeast display assays; also called biotinylated hIL-2; immobilized hIL-2

[2] = molecular target: T1, biotinylated human IL-2 with C-terminal …; assay: flow cytometry competition: soluble IL-2Rα titrated against 5 nM biotinylated IL-2; competitor is the yeast-displayed F10 scFv
[3] = molecular target: T1, biotinylated human IL-2 with C-terminal …; assay: flow cytometry competition: soluble IL-2Rα titrated against 10 nM biotinylated IL-2; competitor is the yeast-displayed 602 scFv
[4] = molecular target: T1, biotinylated human IL-2 with C-terminal …; assay: flow cytometry on yeast displaying the scFv, 5 nM soluble biotinylated IL-2 co-incubated with soluble IL-2Rα
Experimental: (§1) Cells were then washed and stained with a 1:200 dilution of AlexaFluor 647-complexed streptavidin (Thermo Fisher Scientific) in PBSA for 15 minutes at 4° C. After a final wash, cells were analyzed for target binding using a CytoFLEX flow cytometer (Beckman Coulter). Background-subtracted and normalized binding curves were fitted to a first-order binding model and equilibrium dissociation constant (KD) values were determined using GraphPad Prism software.

[5] = molecular target: T1, biotinylated human IL-2 with C-terminal …; assay: flow cytometry, titration of soluble biotinylated IL-2 on yeast displaying the scFv, streptavidin-AF647 detection
Experimental: as §1

Kd [1]: 3.5 nM
B1: recombinant 602 antibody (anti-human IL-2), mouse IgG2a kappa (antibody, V domains shown)
VH: EVQLQESGPGLVAPSQSLSITCTVSGFSLTNYDISWIRQPPGKGLEWLGVIWTGGGTNYNSGFMSRLSITKDNSKSQVFLKMNSLQTDDTAIYYCVRQGRTPYWGQGTLVTVSA
VL: DIQVTQSPSSLSVSLGDRVTITCKASKDIYNRLAWYQQKPGNAPRLLISGATSLETGVPSRFSGSGSGKDYTLTITSLQTEDVATYYCQQFWGTPYTFGGGTKLEIKR
notes: They are built here from the component entries so that the signal peptides are left out; also called MAB602

IC50 (read off the curve) [2]: ~300 nM
IC50 (read off the curve) [3]: ~60 nM
B2: human IL-2Rα extracellular domain, soluble, with C-terminal hexahistidine tag (receptor)
chain: ELCDDDPPEIPHATFKAMAYKEGTMLNCECKRGFRRIKSGSLYMLCTGNSSHSSWDNQCQCTSSATRNTTKQVTPQPEEQKERKTTEMQSPMQPVDQASLPGHCREPPPWENEATERIYHFVVGQMVYYQCVQGYRALHRGPAESVCKMTHGKTRWTQPQLICTGEMETSQFPGEEKPQASPEGRPESETSCLVTTTDFQIQTEMAATMETSIFTTEYQHHHHHH
notes: extracellular domain; also called soluble IL-2Rα

binding result [4]: binds
B3: yeast-displayed F10 single-chain variable fragment (variant of the 602 scFv) (scFv)
scFv: EVQLQESGPGLVAPSQSLSITCTVSGFSLTNYDISWIRQPPGKGLEWLGVIWTGGGTNYNSGFMSRLSITKDNSKSQVFLKMNSLQTDDTAIYYCVRQGRSPYWGQGTLVTVSAGGGGSGGGGSGGGGSDIQVTQSPSSLSVSLGDRVTITCKASKDIYNRLAWYQQKPGNAPRLLISGATSLETGVPSRFSGSGSGKDYTLTITSLQTEDVATYYCQQSWDTPYTFGGGTKLEIK
notes: also called F10 scFv; evolved F10 scFv; not shown: N-terminal Aga2, (G4S)3 linker, 3C and factor Xa cleavage sites; C-terminal c-Myc tag

EC50 (read off the curve) [5]: ~10 nM
B4: yeast-displayed 602 single-chain variable fragment (VH-(G4S)3-VL, fused to Aga2) (scFv)
scFv: EVQLQESGPGLVAPSQSLSITCTVSGFSLTNYDISWIRQPPGKGLEWLGVIWTGGGTNYNSGFMSRLSITKDNSKSQVFLKMNSLQTDDTAIYYCVRQGRTPYWGQGTLVTVSAGGGGSGGGGSGGGGSDIQVTQSPSSLSVSLGDRVTITCKASKDIYNRLAWYQQKPGNAPRLLISGATSLETGVPSRFSGSGSGKDYTLTITSLQTEDVATYYCQQFWGTPYTFGGGTKLEIK
notes: not shown: N-terminal Aga2, (G4S)3 linker, 3C and factor Xa cleavage sites; C-terminal c-Myc tag
